Test results as given in patent US7030099B2, “Tumor specific promoters of the midkine gene that allow for selective expression in P53-inactivated cells” (Research Corporation Technologies, Inc., priority 2000, dated 2006).

Assays:
lung cancer cells QG-56 = assay: In vitro sensitivity to GCV of MK0.6-TK-introduced cells; format: cell-based, human
Protocol: (§1) (2) Then, the tumor-specificity of this MK0.6 promoter was examined using the human tumor cells and normal fibroblasts. As described above, MK0.6-TK was introduced into various types of cells using lipofectin, and they were cultured in the presence of 400 μg/ml of G418 for ten days to obtain cells in which the MK0.6-TK gene was expressed. Thus, these gene-introduced cells were plated at 500 cells/well of 96-well culture plates, and were cultured in the presence of various concentrations of GCV for seven days. The survival rate of the cells was examined using the Cell Counting Kit-8. The results obtained are shown in FIG. 3A, FIG. 3B and FIG. 3C.

[1] = as currently used for treatment of cytomegalovirus infections; cited from earlier work
[2] = test system: lung cancer cells QG-56, PC-1, human breast cancer cells BT549; assay: Luciferase assay of midkine promoter activity in tumor cells; format: cell-based; conditions: FIG. 6
Description: Using the PCR method based on the information of the midkine genomic DNA, a DNA fragment that corresponds to a 335 bp region (MK335bp) from −285 to +50 and that has the base sequence set forth in SEQ ID NO: 4 was synthesized, and after confirming the sequences, it was inserted into pCR2.1 (manufactured by Invitrogen). After excising MK335bp from this DNA, it was ligated to pGL2-Basic (manufactured by Promega) to construct a plasmid for detecting promoter activity. Furthermore, using pGL2-Control (manufactured by Promega) containing the promoter of SV40 virus and pGL2-Basic containing a similarly constructed 609 bp midkine promoter (MK0.6), promoter activity was examined by the following method.
The lung cancer cells QG-56, PC-1, and human breast cancer cells BT549 that were cultured in DMEM (Sigma) supplemented with 10% bovine fetal serum, were transfected. After 10 μg each of these plasmids and lipofectin (manufactured by Life Technologies) were mixed, it was allowed to stand at room temperature for 30 minutes to form a complex. […] In order to normalize the efficiency of gene introduction, 1 μg of pRL-TK plasmid (manufactured by Promega) was included in each gene introduction group, and the Renilla luciferase activity by the TK promoter was determined, based on which the Firefly luciferase activity was corrected.

[3] = test system: lung cancer cells QG-56, neuroblastoma NGP; assay: CAT assay of promoter transcription activity, tumor cells; format: cell-based, human
Protocol: (§2) Using the above plasmid, or a plasmid pCAT-Control (manufactured by Promega) having the promoter of SV40 virus, and a plasmid pCAT-Basic (manufactured by Promega) containing no promoters, gene introduction was performed on the lung cancer cells QG-56, the neuroblastoma NGP, and the normal human fibroblasts MRC-5 that were being cultured in a DMEM (Sigma) supplemented with 10% bovine fetal serum. After 10 μg each of these plasmids and lipofectin (Life Technologies) were mixed, it was allowed to stand at room temperature for 30 minutes to form a complex. Then the complex, after removing the bovine fetal serum therefrom, was contacted with the cells. Eight hours later culture medium supplemented with bovine fetal serum was added, cultured for 40 hours, and then the gene-introduced cells were disrupted by ultrasonication. After centrifugation, the supernatants were used to examine their transcription activities with the known CAT assay method (Gorman, C M et al., Mol. Cell. Biol., 2:1044–1051, 1982) using [^14C]-chloramphenicol and acetyl CoA. At this time, in order to normalize the efficiency of gene introduction, 1 μg of the β-galactosidase gene (pCH110, manufactured by Amersham) was introduced at the same time, and the β-galactosidase activity (Heromel, P. et al., Cell, 39:653–662, 1984) was determined.

[4] = test system: normal human fibroblasts MRC-5; assay: CAT assay of promoter transcription activity, normal cells; format: cell-based; conditions: FIG. 1
Protocol: as §2

[5] = test system: immortalized MRC-5 cells (p53 functions inactivated); assay: In vitro sensitivity to GCV of promoter-TK gene-introduced cells (Cell Counting Kit-8 survival); format: cell-based, human; conditions: HSV-TK gene powered by the promoter, GCV seven days, FIG. 2B
Protocol: (§3) (1) In order to examine cytotoxic effects by the transcription activity of the promoter obtained from the midkine gene, herpes simplex virus thymidine kinase (HSV-TK), a suicide gene, was ligated downstream of MK0.6 and MK2.3, and the plasmid was introduced in cells, and a prodrug gancyclovir (GCV) was added into the culture medium of the gene-introduced cells. The method of determining the cytotoxic effect by this system is as described in Moolten, FL. Cancer Gene Ther., 1:279–287, 1994.
(§4) First, the CMV promoter of pcDNA3 (manufactured by Invitrogen) was removed using NruI and HindIII sites, to which MK2.3 or Mk0.6 was inserted, and then using the EcoRV site, the HSV-TK gene excised from pMK (Brinster, R L et al., Cell, 27:223–231, 1981) with BglI and EcoRI was inserted. Each of the plasmids thus obtained (MK2.3-TK and MK0.6-TK) was introduced, as described above, using lipofectin into MRC-5 which are normal cells, or MRC-5 cells that had been immortalized by inactivating the functions of the p53 tumor suppressor gene. In order to utilize the expression of the Neo gene contained in pcDNA3 as drug resistant markers, the cells were cultured with 400 μg/ml of G418 (manufactured by Life Technologies) for ten days to establish the cells that expressed MK2.3-TK and MK0.6-TK, respectively. These cells were then plated at 500 cells/well of 96-well culture plates, and were cultured in the presence of various concentrations of GCV (manufactured by F. Hoffman-La Roche) for seven days. The survival rate of the cells was examined using the Cell Counting Kit-8 (manufactured by Dojin Kagaku). The survival of the cells at a GCV concentration of 0 μg/ml was set as 100%, and the survival for each experiment group is shown in terms of percentage in FIG. 2A and FIG. 2B.

normal MRC-5 cells = assay: as above; format: cell-based, human; conditions: HSV-TK gene controlled by the promoter, GCV seven days, FIG. 2A
Protocol: as §3, §4

neuroblastoma NGP cells = assay: In vitro sensitivity to GCV of MK0.6-TK-introduced cells; format: cell-based, human; conditions: MK0.6-TK-introduced NGP; GCV seven days; FIG. 3B
Protocol: as §1

normal fibroblasts HEF = assay: as above; format: cell-based, human; conditions: MK0.6-TK-introduced HEF; GCV seven days; FIG. 3C
Protocol: as §1

immortalized MRC-5 cells = assay: Luciferase assay of MK0.6 promoter activity under expression of wild-type p53; format: cell-based, human; conditions: FIG. 5
Description: In at least about 50% of human solid tumors, the loss of p53 gene functions is observed, and forced expression of-the wild-type p53 gene in tumors arrests tumor growth in some cases. Thus, using the MRC-5 cells that had been immortalized by destroying the functions of the p53 gene, DNA plasmid was introduced in which the luciferase gene, a reporter gene, was ligated downstream of the MK0.6 promoter, and the transcription activity of the MK0.6 promoter under the expression of the wild-type p53 gene was examined.
For this purpose, the MK0.6-CAT plasmid prepared in Example 1 was cleaved with HindIII, and the MK0.6 kb gene obtained was inserted into the HindIII site of pGL2-Basic (manufactured by Promega). […] After 48 hours-culture, the cells were disrupted using the Dual-Luciferase Reporter Assay System (manufactured by Promega), and the Firefly luciferase activity therein was determined using the reagents in the same kit. In order to normalize the efficiency of transfection, 1 μg of pRL-TK plasmid (manufactured by Promega) was included in each transfection, and the Renilla luciferase activity by the TK promoter was determined, based on which the Firefly luciferase activity was corrected.

Nc1nc(O)c2ncn(COC(CO)CO)c2n1 [GCV, gancyclovir, reference compound]
concentration at which the cytotoxic effects by GCV was obtained (lung cancer cells QG-56; MK0.6-TK-introduced tumor cells (QG-56, NGP)): 0.1 µg/mL
maximum blood concentration of GCV [1]: 1 µg/mL

B1: MK335bp: 335 bp midkine region from −285 to +50, base sequence SEQ ID NO: 4 (nucleic acid, listed as Homo sapiens)
DNA: ACCACCGCTCGGAAGATGGGGCCGGGAGAGGCCGCCGTCGCAGCGCAGAGGGCACCGGCGGGGAGACGCGAGGACGCGGGGCCGGGAACACGGACGCCGGAGTAGAAGCGCGGGGGGGGCGGGCTGGAGCGGGGGCGGGGACGCCGGGGTCGGGGGCGGTGCGGGTTTGAGGGGAGGGGGCGGGGCGGGTCCTTCCCTGGGGGGGTGGGGAGAGGGGGCGGGGGCCCATGTGACCGGCTCAGACCGGTTCTGGAGACAAAAGGGGCCGCGGCGGCCGGAGCGGGACGGGCCCGGCGCGGGAGGGAGCGAAGCAGCGCGGGCAGCGAGCGAGTGAG
promoter activity compared with MK0.6 [2]: almost the same activity as that of MK0.6

B2: MK0.6: 0.6 kb (609 bp, −559 to +50) of the human midkine genomic gene, base sequence SEQ ID NO: 1 (nucleic acid, listed as Homo sapiens)
DNA: GCTTCCCTGCCCACCCGCGGAAACCGCCCCAGGTGGCCGCGCCCCCTCCCCAGCAGCCAGCAGGGCGCCAGGGCTGAGCCGGCCGTGGAGGGGAGCGGGTCCCGGGGGTTATACAGGCGCCGGGCGTCCGCGGCAGGCAAGAGAAGCTGAGGCCTGAGAACGGCCCGGGCCTTGGCGTACGGCAGGGGACGACCTGGGATGGGGGCAGCGGGCGGCGGCGCAGGGAGTGGGCCGGGGCCGGTGTGCGCGGGCGGGACGGGGCCGGGGTCGGGAGACCACCGCTCGGAAGATGGGGCCGGGAGAGGCCGCCGTCGCAGCGCAGAGGGCACCGGCGGGGAGACGCGAGGACGCGGGGCCGGGAACACGGACGCCGGAGTAGAAGCGCGGGGGGGGCGGGCTGGAGCGGGGGCGGGGACGCCGGGGTCGGGGGCGGTGCGGGTTTGAGGGGAGGGGGCGGGGCGGGTCCTTCCCTGGGGGGGTGGGGAGAGGGGGCGGGGGCCCATGTGACCGGCTCAGACCGGTTCTGGAGACAAAAGGGGCCGCGGCGGCCGGAGCGGGACGGGCCCGGCGCGGGAGGGAGCGAAGCAGCGCGGGCAGCGAGCGAGTGAG
tumor-specificity of promoter activity ([3]; tumor cells versus normal cells): specifically strong in tumors
transcriptional activity compared with other midkine promoter fragments ([3]; tumor cells, FIG. 1): more potent in the tumor cells than MK1.0 or MK2.3
transcriptional activity compared with promoter of SV40 virus ([3]; tumor cells, FIG. 1): more potent than the promoter of SV40 virus in the tumor cells
transcriptional activity compared with other midkine promoter fragments [4]: rather decreased in the normal cells
sensitivity to GCV compared to that of the parent strain [5]: 1000 fold
sensitivity to GCV compared to that of the parent strain (normal MRC-5 cells): identical with that of the parent strain
sensitivity to GCV compared to parent strain (lung cancer cells QG-56; MK0.6-TK-introduced QG-56, GCV seven days, FIG. 3A): 1000 fold
sensitivity to GCV compared to parent strain (neuroblastoma NGP cells): 1000 fold
sensitivity to GCV compared to parent strain (normal fibroblasts HEF): remained the same
MK0.6 promoter activity with increasing amounts of CMV-p53 plasmid (immortalized MRC-5 cells; CMV-p53 0–1 μg co-transfected): decreased
MK0.6 promoter activity with control CMV-p53R plasmid (immortalized MRC-5 cells; CMV-p53R 0–1 μg co-transfected): no changes
